The values that follow come from patent publication US9193963B2, “Mutant endoglucanase” (Toray Industries, Inc., priority 2011, dated 2015).

The data set in a line: Activity to degrade phosphoric acid swollen cellulose. The format is biochemical. To be noted: Comparative Example 2, technique similar to Example 3; parent endoglucanase = 100%. As to the method: The term “identity” refers to the percentage of amino acid residues identical to and amino acid residues analogous to the other amino acid residues in all the amino acid residues overlapped when an optimum alignment is performed by introducing gaps or no gaps into two amino acid sequences and then aligning the two amino acid sequences. Such an identity can be found using a method known by persons skilled in the art, sequence analysis software, and the like (a known algorithm such as BLAST or FASTA). The term “endoglucanase activity” is as defined above and can be determined by adding an enzyme solution to a substrate solution of phosphoric acid swollen cellulose that has been dissolved in 50 mM acetic acid-sodium acetate buffer (pH 5.2) or the like, performing 1 hour of reaction at 30° C. to 85° C., stopping the reaction by changing the pH if necessary, and then determining the concentration of glucose in the reaction solution using a glucose determination kit, for example.
The mutants obtained in Comparative Example 1 were compared in terms of activity by a technique similar to that in Example 3. The concentration (g/L) of glucose generated by each parent endoglucanase under the above reaction conditions was determined to be 100%.

B1: EGPh(W273Y): comparative mutant of EGPh, the 273rd tryptophan substituted with tyrosine, SEQ ID NO: 49 (protein)
chain: MEGNTILKIVLICTILAGLFGQVVPVYAENTTYQTPTGIYYEVRGDTIYMINVTSGEETPIHLFGVNWFGFETPNHVVHGLWKRNWEDMLLQIKSLGFNAIRLPFCTESVKPGTQPIGIDYSKNPDLRGLDSLQIMEKIIKKAGDLGIFVLLDYHRIGCTHIEPLWYTEDFSEEDFINTWIEVAKRFGKYWNVIGADLKNEPHSVTSPPAAYTDGTGATWGMGNPATDWNLAAERIGKAILKVAPHWLIFVEGTQFTNPKTDSSYKWGYNAWYGGNLMAVKDYPVNLPRNKLVYSPHVYGPDVYNQPYFGPAKGFPDNLPDIWYHHFGYVKLELGYSVVIGEFGGKYGHGGDPRDVIWQNKLVDWMIENKFCDFFYWSWNPDSGDTGGILQDDWTTIWEDKYNNLKRLMDSCSKSSSSTQSVIRSTTPTKSNTSKKICGPAILIILAVFSLLLRRAPR
modifications: Pyrococcus horikoshii EGPh W273Y
In the case of B1, the Relative activity stood at 100%.

B2: EGPh(W273F): comparative mutant of EGPh, tryptophan substituted with phenyl alanine, SEQ ID NO: 50 (protein)
chain: MEGNTILKIVLICTILAGLFGQVVPVYAENTTYQTPTGIYYEVRGDTIYMINVTSGEETPIHLFGVNWFGFETPNHVVHGLWKRNWEDMLLQIKSLGFNAIRLPFCTESVKPGTQPIGIDYSKNPDLRGLDSLQIMEKIIKKAGDLGIFVLLDYHRIGCTHIEPLWYTEDFSEEDFINTWIEVAKRFGKYWNVIGADLKNEPHSVTSPPAAYTDGTGATWGMGNPATDWNLAAERIGKAILKVAPHWLIFVEGTQFTNPKTDSSYKWGYNAWFGGNLMAVKDYPVNLPRNKLVYSPHVYGPDVYNQPYFGPAKGFPDNLPDIWYHHFGYVKLELGYSVVIGEFGGKYGHGGDPRDVIWQNKLVDWMIENKFCDFFYWSWNPDSGDTGGILQDDWTTIWEDKYNNLKRLMDSCSKSSSSTQSVIRSTTPTKSNTSKKICGPAILIILAVFSLLLRRAPR
modifications: Pyrococcus horikoshii EGPh W273F
Turning to B2, the Relative activity came to 100%.
